Literature values in publication doi:10.1101/2024.07.26.605324.

How the values were obtained:
His27 = His27 (UniProt position 27, AWTIGHLNQIK); assay: NMR; conditions: 243–263 K; membrane-bound tetramer, wild type with both His19 and His27 present
His19 = His19 (UniProt position 19, ILSALHFMAWT); assay: NMR; conditions: 243–263 K; membrane-bound tetramer, wild type with both His19 and His27 present

Substance: Influenza B virus matrix protein 2 (BM2) proton channel (Influenza B virus)
- pKa (His27): 7.9
- pKa (His19): 4.2
